Assay results taken from patent US20070049518A1, “Novel method of treatment of inflammatory skin conditions” (priority 2005, published 2007).
Like-named read-outs stand apart in the source and are kept apart here.

How the values were obtained:
single chain pro-uPA = test: Activation of pro-uPA by aureolysin; assay type: biochemical; details: Expt. 1, 2.5 h
[1] = molecular target: T1, proenzyme of human rheumatoid synovial fibroblast collagenase (proMMP-1) (Homo sapiens, UniProt P03956); assay type: biochemical; details: for α1-chain ¾ - length product: aureolysin 3 μg/ml and/or 1 mM APMA
T1 construct: the proenzyme of human rheumatoid synovial fibroblast collagenase (Calbiochem); purchased Calbiochem; host or cells: human rheumatoid synovial fibroblasts (as the product's name says)
T1 sequence (P03956 20-469): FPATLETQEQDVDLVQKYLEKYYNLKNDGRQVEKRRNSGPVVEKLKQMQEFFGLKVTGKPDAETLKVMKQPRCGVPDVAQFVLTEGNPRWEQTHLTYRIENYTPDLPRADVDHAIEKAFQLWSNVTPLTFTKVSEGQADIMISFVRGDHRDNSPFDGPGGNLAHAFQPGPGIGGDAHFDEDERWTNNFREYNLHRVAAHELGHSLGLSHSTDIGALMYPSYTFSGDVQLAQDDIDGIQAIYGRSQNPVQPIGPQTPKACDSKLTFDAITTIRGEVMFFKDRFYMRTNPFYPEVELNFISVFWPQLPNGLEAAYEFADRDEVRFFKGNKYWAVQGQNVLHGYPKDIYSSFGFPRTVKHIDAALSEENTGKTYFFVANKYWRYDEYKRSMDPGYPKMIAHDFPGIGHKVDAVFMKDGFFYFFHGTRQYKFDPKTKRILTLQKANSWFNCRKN
Protocol: (§1) Collagenase activity in the samples was then determined by incubation at 25° C. in TCNB containing 0.1 μg/ml (pro)MMP-1 and 0.16 mg/ml porcine type I collagen (MD Biosciences).

[2] = tested on: proenzyme of human rheumatoid synovial fibroblast collagenase (proMMP-1); assay type: biochemical; details: aureolysin alone±APMA
Protocol: as §1

[3] = tested on: Human skin epidermal keratinocytes; test: Keratinocyte activation, IL-8 production; assay type: cell-based; details: 48 hours, aureolysin 50 μg/ml
Source text: Activated keratinocytes produce IL-8, a proinflammatory chemokine. Many bacterial products cause the activation of keratinocytes. Aureolysin may be evaluated for its effects on IL-8 production by keratinocytes. Human skin epidermal keratinocytes (TCS Cellworks) are maintained as per instructions. Proliferating cultures are trypsinised, harvested, treated with a trypsin inhibitor and resuspended in growth medium at approximately 50,000 cells/well, to provide confluent monolayers in 96 well plates. Cells are incubated overnight at 37° C. at 5% CO2 to allow recovery, the spent medium aspirated from the wells and replaced with fresh growth medium. The cells are incubated at 37° C. at 5% CO2 for a further 24 or 48 hours with aureolysin or buffer control.
The supernatants are removed from each well and the concentration of IL-8 is determined using a human IL-8 ELISA development kit from R&D systems (Catalog Number: DY208) using the manufacturers instructions.
In these experiments, the cells are incubated at 37° C. at 5% CO2 for 48 hours with aureolysin or buffer control. Poly IC and lipoteichoic acid (LTA), which stimulate IL-8 production in keratinocytes were used as positive controls.

aureolysin: metalloprotease (EC 3.4.24.29) secreted by Staphylococcus aureus, single chain of 301 amino acids
Urokinase activity after pro-uPA activation (single chain pro-uPA; aureolysin 0.1 μg/ml, MES pH 5.6): 2.31 A405/0.5 h/μg | Urokinase activity after pro-uPA activation (single chain pro-uPA; aureolysin 0.1 μg/ml, Tris-HCl pH 7.5): 0.65 A405/0.5 h/μg | Urokinase activity after pro-uPA activation (single chain pro-uPA; aureolysin 0.3 μg/ml, MES pH 5.6): 3.76 A405/0.5 h/μg | Urokinase activity after pro-uPA activation (single chain pro-uPA; aureolysin 0.3 μg/ml, Tris-HCl pH 7.5): 1.43 A405/0.5 h/μg | Urokinase activity after pro-uPA activation (single chain pro-uPA; aureolysin 1 μg/ml, MES pH 5.6): 4.68 A405/0.5 h/μg | Urokinase activity after pro-uPA activation (single chain pro-uPA; aureolysin 1 μg/ml, Tris-HCl pH 7.5): 3.29 A405/0.5 h/μg | α1-chain ¾ - length product ([1]; Time 0 h): 0 arbitrary units | α1-chain ¾ - length product ([1]; Time 0.5 h): 1709 arbitrary units | α1-chain ¾ - length product ([1]; Time 1 h): 3726 arbitrary units | α1-chain ¾ - length product ([1]; Time 1.5 h): 5115 arbitrary units | α1-chain ¾ - length product ([1]; Time 2 h): 8742 arbitrary units | α1-chain ¾ - length product ([1]; Time 3 h): 12718 arbitrary units | α1-chain ¾ - length product ([1]; Time 4 h): 16882 arbitrary units | α1-chain ¾ - length product ([1]; Time 5 h): 17558 arbitrary units | α1-chain ¾ - length product ([1]; Time 6 h): 19436 arbitrary units | Relative rate of collagen cleavage ([1]; relative to untreated control (MMP-1 alone = 1)): 3 | collagenase activity of control incubations without proMMP-1 (in words) [2]: no activity | IL-8 ± SE [3]: 687 pg/mL | IL-8 ± SE ([3]; listed as Aureolysin): 687 ± 0.7 pg/mL
